Test results taken from patent US20140093514A1 (UNIVERSITY OF ZURICH, published 2014).
Like-named read-outs stand apart in the source and are kept apart here.

T1: recombinant MAGEA1 (UniProt P43355 1-309, limits assumed)
T1 construct: also called CT1.1
T1 sequence (looked up): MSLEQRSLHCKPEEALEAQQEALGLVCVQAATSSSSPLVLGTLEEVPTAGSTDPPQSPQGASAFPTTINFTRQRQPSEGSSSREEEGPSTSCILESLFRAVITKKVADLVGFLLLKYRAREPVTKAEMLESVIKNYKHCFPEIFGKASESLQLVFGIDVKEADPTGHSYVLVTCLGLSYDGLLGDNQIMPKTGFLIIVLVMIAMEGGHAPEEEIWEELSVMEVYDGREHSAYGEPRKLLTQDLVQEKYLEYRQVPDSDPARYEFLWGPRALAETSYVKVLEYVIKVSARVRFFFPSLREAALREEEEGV

T2: recombinant MAGEA4 (UniProt P43358 1-317, limits assumed)
T2 construct: also called CT1.4
T2 sequence (looked up): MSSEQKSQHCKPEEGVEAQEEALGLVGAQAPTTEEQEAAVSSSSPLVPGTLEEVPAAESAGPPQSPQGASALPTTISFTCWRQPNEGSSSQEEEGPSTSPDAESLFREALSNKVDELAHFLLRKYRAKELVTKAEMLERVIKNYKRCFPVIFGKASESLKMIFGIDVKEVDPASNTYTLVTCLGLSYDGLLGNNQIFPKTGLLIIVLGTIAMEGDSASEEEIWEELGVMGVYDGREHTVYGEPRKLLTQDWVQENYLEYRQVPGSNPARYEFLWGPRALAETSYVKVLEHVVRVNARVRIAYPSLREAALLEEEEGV

T3: MAGEA3 peptide No 22
T3 construct: member of the group m18; also called 20mer peptide, amino acids 211-230 of MAGEA3
T3 peptide: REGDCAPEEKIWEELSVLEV

B1: 20C10 (antibody, V domains shown)
VH: QLQLQESGPGLVKPSETLSLTCTVSGDSISASTDSWGWIRQSPGKGLEWIGVTSYSGRPYYNPSLKRRVTISVDTSKNHFSLKLTSVTAADRALYYCARRPSLIWAFDIWGQGTMVTVSS
VL: QSALTQPASVSGSPEQSITISCTGTSSAVGNYNLVSWYQHHPGKAPLLIIYDVNERPSGVSHRFSGSRSGNTASLTISGLLAEDEADYFCCSYGGTSSLHYVFGTGTRVTVL
B2: 4D6 (antibody, V domains shown)
VH: QVQLVESGGGVVQPGRSLRLSCAASGFSFSDYAMHWVRQAPGKGLEWVAVISYDGTKKYYADSVEGRLTISRDNSQNTLSLQMSGLRVEDKGVYYCARDGCDSARCSYGMDVWGQGTTVTVSS
VL: EIVMTQSPSSLSASVGDRVTITCRASQDIRNDLGWYQQKPGKAPKLLIYGASTLQSGVPSRFSGSGSGTDFTLTISSLQPEDFATYYCLQDYSYRWTFGQGTKVEIK
B3: 26C9 (antibody, V domains shown)
VH: QVQLVQSGAAVKKPGSSVKVSCTASGGTFGTSGITWVRQAPGQGLEWVGRVTPILGITRYAQRFQGRVTITADTSTSTAYMELSRLRSDDTALYYCARAPEMTINSDWGQGTLVTVSS
VL: QSALTQPASVSGSPGQSITISCTGTRSDVGGHNYVSWYQQDPDKAPKLIIYEVSKRPSGVSNRFSGSKSGNTASLTISGLQAEDEADYYCSSYTGTTILEVFGTGTTVTVL
B4: 2G4 (antibody, V domains shown)
VH: QVQLVQSGAAVKKPGSSVKVSCTASGGTFGTSGITWVRQAPGQGLEWVGRITPILGITRYGQRFQGRVTITADKSTSTAYMELSRLRSDDTALYYCARAPEMTINSDWGQGTLVTVSS
VL: QSALTQPASVSGSPGQSITISCTGTRSDVGGHNYVSWYQHDPDKAPKLIIYEVSKRPSGISNRFSGSKSGNTASLTISGLQAEDEADYYCSSYTGSTILEVFGTGTTVTVL
B5: 54B4 (antibody, V domains shown)
VH: EVQLVESGGGLVPPGGSLRLSCAASGFTFTTYGLTWVRQAPGKGLEWISYITSSGTIIHYADSVKGRFTISRDNAKNSLYLQMNSLRAEDTAVYYCARGRRGTVVRGVMLDQWGQGTLVTVSS
VL: DIQMTQSPSTLSASIGDRVTITCRASQSISRWLAWYQQKPGQAPKLLIYEASSLESGVPSRFSGSGSGTEFTLTISSLQPDDFAIYYCQQYSSYSLTFGGGTKVEIK
B6: 43B10 (antibody, V domains shown)
VH: EVQLVESGGGLVPPGGSLRLSCAASGFTFTTYGLNWVRLAPGKGLEWISYITSSGTIIHYADSVKGRFTISRDNAKNSLYLQMNSLRAEDTAVYYCARGRRGTVVRGVMLDQWGQGTLVTVSS
VL: DIQMTQSPSTLSASIGDRVTIACRASQSISRWLAWYQQKPGQAPKLLIYEASSLESGVPSRFSGSGSGTEFTLTISSLQPDDFATYYCQQYSSYSLAFGGGTKVEIK
B7: 94G11 (antibody, V domains shown)
VH: QVLLQESGPGLVKPSQILSLTCTVSGGSNRSVSYYWSWIRQPAGQGLEWIGRIYPSGSTHYNPSLKSRVTISVDTSKNQFSLKLSSLTAADTAMYFCAWGGYDSLGGRRLRHFDYWGQGALVTVSS
VL: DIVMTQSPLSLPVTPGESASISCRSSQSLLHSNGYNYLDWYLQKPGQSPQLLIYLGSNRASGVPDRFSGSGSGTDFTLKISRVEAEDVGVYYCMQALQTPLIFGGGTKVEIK

Assays:
[1] = molecular target: T4, recombinant MAGEA3 protein (human, UniProt P43357 1-314); test: ELISA, recombinant MAGEA3 coated to plastic, serial dilutions of antibody, OD 450 nm
T4 construct: In Experiment 4C MAGEA3 was also expressed in transiently transfected HEK293T cells (fixed and permeabilized); also called His-tagged MAGEA3; CT1.3
T4 sequence (P43357 whole entry): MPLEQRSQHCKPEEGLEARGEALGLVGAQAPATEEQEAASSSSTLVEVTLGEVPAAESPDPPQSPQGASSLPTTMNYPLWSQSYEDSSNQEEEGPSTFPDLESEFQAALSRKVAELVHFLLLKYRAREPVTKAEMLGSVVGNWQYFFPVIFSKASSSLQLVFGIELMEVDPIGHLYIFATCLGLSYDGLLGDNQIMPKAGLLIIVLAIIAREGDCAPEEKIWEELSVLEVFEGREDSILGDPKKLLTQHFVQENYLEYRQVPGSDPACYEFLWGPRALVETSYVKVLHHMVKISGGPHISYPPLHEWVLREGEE
Procedure: FIG. 4 EC50 determination of recombinant human monoclonal antibodies to MAGEA3. MAGEA3-ELISA was carried out using recombinant MAGEA3 coated to plastic and serial dilutions of the human monoclonal antibodies 21B4, 54B4, 94G11, 9A5, 31H10, 43B10, 2G4, 20C10, 26C9 and 4D6 (A-J). EC50 values are indicated in each figure.
(§1) The EC₅₀, the concentration at which half-maximal binding of the antibody to its antigen is observed was determined in MAGEA3 ELISA using serial dilutions of the human monoclonal antibodies 21B4, 54B4, 94G11, 9A5, 31H10, 43B10, 2G4, 20C10, 26C9 and 4D6. EC50 values were determined mathematically by derivation of the best-fit line using GraphPad software.

[2] = molecular target: T4, recombinant MAGEA3 protein; test: as above; remark: listed apart in the source
Procedure: His-tagged MAGEA3 expressed in bacteria was column-purified and used to coat 96 well microplates (Costar, USA). Plates were washed with PBS-T and blocked 1 h at room temperature with PBS containing 2% BSA (Sigma, Buchs, Switzerland). Patient sera, B cell conditioned medium, or recombinant antibody preparations were incubated for 2 h at room temperature. Binding of human IgG to MAGEA3 was determined using a horseradish peroxidase conjugated goat anti human Fc-gamma-specific antibody (Jackson ImmunoResearch, Europe Ltd., Cambridgeshire, UK) followed by measurement of the HRP activity using a TMB substrate solution (TMB, Sigma, Buchs, Switzerland).
as §1

recombinant MAGEA1 = molecular target: T1, recombinant MAGEA1; test: ELISA on coated recombinant MAGEA proteins, serial dilutions of antibody (concentrations not printed on the sheet)
Procedure: (§2) Recombinantly expressed MAGEA3, MAGEA1, MAGEA4, MAGEA10 were coated on ELISA plates and binding of MAGEA3 antibodies 21B4, 94G11, 2G4, 9A5 and 54B4 to these proteins was tested. The results are depicted in FIG. 3B).

recombinant MAGEA10 = molecular target: T5, recombinant MAGEA10 (UniProt P43363 1-369, limits assumed); test: as above
T5 construct: also called CT1.10
T5 sequence (P43363 whole entry): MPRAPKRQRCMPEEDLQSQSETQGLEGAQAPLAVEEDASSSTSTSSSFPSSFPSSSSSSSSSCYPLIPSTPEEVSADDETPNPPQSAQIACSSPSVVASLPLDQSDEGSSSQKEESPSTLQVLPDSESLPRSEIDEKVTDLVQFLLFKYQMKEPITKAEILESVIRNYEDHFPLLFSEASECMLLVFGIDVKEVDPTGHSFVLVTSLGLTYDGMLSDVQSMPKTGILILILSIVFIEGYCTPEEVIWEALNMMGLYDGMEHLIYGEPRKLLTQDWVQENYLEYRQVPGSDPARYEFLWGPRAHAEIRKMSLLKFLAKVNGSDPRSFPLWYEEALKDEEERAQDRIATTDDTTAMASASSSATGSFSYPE
Procedure: as §2

recombinant MAGEA4 = molecular target: T2, recombinant MAGEA4; test: Western blot; recombinant MAGEA4 in lane B, human antibody as probe
Procedure: Membranes were incubated with human antibodies 21B4, 54B4, 94G11, 9A5, 31H10, 43B10, 2G4 or 20C10. Binding of human antibodies to proteins on the membrane was evaluated. The results are depicted in FIG. 3A).

MAGEA6 = molecular target: T6, MAGEA6 (UniProt P43360 1-314, limits assumed); test: flow cytometry on fixed, permeabilized HEK293T cells transiently transfected with MAGEA6; PE-labeled anti-human antibody
T6 construct: whole, on cells; Intracellular antigen: the transfected cells were fixed and permeabilized before staining; also called CT1.6
T6 sequence (P43360 whole entry): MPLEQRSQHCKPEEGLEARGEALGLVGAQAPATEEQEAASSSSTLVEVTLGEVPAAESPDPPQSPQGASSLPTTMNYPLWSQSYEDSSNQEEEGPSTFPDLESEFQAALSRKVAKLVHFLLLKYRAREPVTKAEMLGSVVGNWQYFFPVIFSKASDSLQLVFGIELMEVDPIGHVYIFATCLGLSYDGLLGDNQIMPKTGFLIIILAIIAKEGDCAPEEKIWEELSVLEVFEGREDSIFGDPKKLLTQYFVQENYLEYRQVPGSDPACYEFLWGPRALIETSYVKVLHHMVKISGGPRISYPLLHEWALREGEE
Procedure: HEK293T cells transiently transfected with MAGEA3 or MAGE A6 were fixed and permeabilized and incubated with human-derived antibodies. Binding of human-derived antibodies to the cells was detected by flow cytometry using PE-labeled anti-human antibodies. […] Filled histograms show binding of 21B4, 31H10, 94G11 and 54B4 to transiently transfected HEK 293 cells. Only a proportion of the cells was transfected resulting in a population expressing the transgene and in a population not expressing the transgene. […] The results are depicted in FIG. 3C).

MAGEA3 peptide No 22 = molecular target: T3, MAGEA3 peptide No 22; test: ELISA on plates coated with overlapping 20mer MAGEA3 peptides; antibody at 1 µg/ml; HRP goat anti-human IgG Fc-gamma
Procedure: 20mer peptides spanning the entire MAGEA3 protein with 10 aa overlaps shared by each adjacent peptide (Peptides&Elephants, Nuthetal, Germany) were used to coat Maxisorp ELISA plates (Nunc, Rochester, N.Y.). As control a 20mer peptide representing amino acids 40-21 from the NY-ESO-1 protein was used (rev). The numbering of amino acids of MAGEA3 is based on SEQ ID No.: 101.
Human recombinant antibody was used at a concentration of 1 μg/ml with the exception of antibody 9A5 which was used at […]. Bound human antibody was detected using horseradish peroxidase-conjugated goat anti-human IgG Fc-gamma specific antibodies (Jackson ImmunoResearch, Europe Ltd., Cambridgeshire, UK).

Binder | EC50 [1] | binding result (recombinant MAGEA4) | EC50 [2] | further results
B1 | 37.3 nM | – | – | –
B2 | – | – | – | binding result [2]: binds
B3 | 0.523 nM | – | – | –
B4 | 7.79 nM | no binding | – | binding result (recombinant MAGEA1): no binding; binding result (recombinant MAGEA10): no binding
B5 | – | no binding | 0.029 nM | binding result (MAGEA6): binds; binding result (MAGEA3 peptide No 22): binds
B6 | – | – | 0.109 nM | binding result (MAGEA3 peptide No 22): binds
B7 | – | no binding | 0.129 nM | binding result (recombinant MAGEA1): no binding; binding result (recombinant MAGEA10): no binding; binding result (MAGEA6): binds
